Five molecules from paper doi:10.1101/2024.09.28.615595 can be followed below.

Holding throughout (experiment): EMSA
For series [1], the target named is T1, CsrA (Escherichia coli, UniProt P69913 1-61).
Series [2] deals with T1, CsrA. The source holds these as a separate data set.
Series [3] concerns the target T1, CsrA. The source holds these as a separate data set.

Read-outs that look alike come from different tables or passages of the source.

T1 sequence (P69913 whole entry): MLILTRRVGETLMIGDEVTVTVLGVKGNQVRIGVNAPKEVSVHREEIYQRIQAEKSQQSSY

B1: uxuB 5' UTR truncation mutant (ssRNA)
RNA: GGGAUAAUGCGCUUUCUUUAGCCGUUAAUAUCCACCGGCAUGGCUGCGCGCCGUGCCGGUUCCUUCUUGCUUGGCGUCACUCUUUGAAGACGCAUUCUGCAGUUUACGA
With B1, the binding result in series [1] is given as “no binding”.

B2: uxuB CDS mutant (DOWNSTR mut) (ssRNA)
RNA: GGGAUAAUGCGCUUUCUUUAGCCGUUAAUAUCCACCGGCAUGGCUGCGCGCCGUGCCGGUUCCUUCUUCCUUGCCGUCACUCUUUGAAGACGGAUUCUGGAGUUUACGAUGACUACUAUUGUUGACAGCAAUCUGCCGGUUGCCCGCCCGUCAUUUGAUCAUUCUCGUCUGCAAUCACGCAUUGUGCAUCUAGGUUGCGGGGCGUUUCGCAUGC
For the molecule B2, the “apparent K (half saturation)” value in series [2] was about 158 nM.

B3: uxuB no GGAs mutant (ssRNA)
RNA: GGGAUAAUGCGCUUUCUUUAGCCGUUAAUAUCCACCGGCAUGGCUGCGCGCCGUGCCGGUUCCUUCUUGCUUGGCGUCACUCUUUGAAGACGCAUUCUGCAGUUUACGAUGACUACUAUUGUUGACAGCAAUCUGCCGGUUGCCCGCCCGUCAUUUGAUCAUUCUCGUCUGCAAUCACGCAUUGUGCAUCUAGGUUGCGGGGCGUUUCGCAUGC
Take B3: the “apparent K (half saturation)” value in series [2] is about 193 nM.

B4: uxuB leader wild type (ssRNA)
RNA: GGGAUAAUGCGCUUUCUUUAGCCGUUAAUAUCCACCGGCAUGGCUGCGCGCCGUGCCGGUUCCUUCUUCCUUGCCGUCACUCUUUGAAGACGGAUUCUGGAGUUUACGAUGACUACUAUUGUUGACAGCAAUCUGCCGGUUGCCCGCCCGUCAUGGGAUCAUUCUCGUCUGGAAUCACGCAUUGUGCAUCUCGGUUGCGGGGCGUUUC
With B4, the Kd (as a rule, the concentration at which binding is half-saturated) in series [2] was about 83.2 nM.

B5: uxuB CDS truncation wild type (ssRNA)
RNA: GGGAUAAUAUGACUACUAUUGUUGACAGCAAUCUGCCGGUUGCCCGCCCGUCAUGGGAUCAUUCUCGUCUGGAAUCACGCAUUGUGCAUCUCGGUUGCGGGGCGUUUC
B5: the Kd in series [3] is about 164 nM.
